Measurements published in the RNAGym collection of RNA variant scans (doi:10.7554/elife.80360).

B1: CPEB3 Ribozyme (parent)
chain: GGGGGCCACAGCAGAAGCGUUCACGUCGCGGCCCCUGUCAGAUUCUGGUGAAUCUGCGAAUUCUGCUGU

Variants of: B1
Assay: self-cleavage, relative activity (ratio to wild type); higher = more cleavage; co-transcriptional

Going from GGGGGCCACAGCAGAAGCGUUCACGUCGGGGCCCCUGUCAGAUUCUGGUGAAUCUGCGAAUUCUGGUGU [C29G C66G] to GGGGGCCACAGCAGAAGCGUUCACGUCGGGGCCCCCGUCAGAUUCUGGUGAAUCUGCGAAUUCUGCUGU [C29G U36C], the self-cleavage falls from 0.369 to 0.286.

Going from GGGGGCCACAGCAGAAGCGUUCACGUCGUGGCCCCUGUCAGAUUCUGGUGAAUCUGCGUAUUCUGCUGU [C29U A59U] to GGGGGCCACAGCAGAAGCGUUCACGUCGUGGCCCCUGUCAGAUUCUGGUGAAUAUGCGAAUUCUGCUGU [C29U C54A], the self-cleavage falls from 0.232 to 0.169.

Going from GGGGGCCACAGCAGAAGCGUUCACGUCGGGGCCCCUGUCAGAUUCUGGCGAAUCUGCGAAUUCUGCUGU [C29G U49C] to GGGGGCCACAGCAGAAGCGUUCACGUCGUGGCCCCUGUCAGCUUCUGGUGAAUCUGCGAAUUCUGCUGU [C29U A42C], the self-cleavage falls from 0.544 to 0.229.

Compared with GGGGGCCACAGCAGAAGCGUUCACGUCGUGGCCCCUGUCAGGUUCUGGUGAAUCUGCGAAUUCUGCUGU [C29U A42G], GGGGGCCACAGCAGAAGCGUUCACGUCGUGGCCCCUGUCAGAUUCUGGUGAAUCUGCGAAUUCUGGUGU [C29U C66G] is lower in self-cleavage: 0.246 for the first, 0.206 for the second.

Compared with GGGGGCCACAGCAGAAGCGUUCACGUCGGGGCCCCUGUCAGAUUCUGGUGAAUCUGCGAAUUCUGCUUU [C29G G68U], GGGGGCCACAGCAGAAGCGUUCACGUCGGGGCCCCUGUCAGAUUCUGGUGAAUCUGCAAAUUCUGCUGU [C29G G58A] is lower in self-cleavage: 0.8 for the first, 0.327 for the second.

Going from GGGGGCCACAGCAGAAGCGUUCACGUCGGGGCCCCUGUCAGAUUCCGGUGAAUCUGCGAAUUCUGCUGU [C29G U46C] to GGGGGCCACAGCAGAAGCGUUCACGUCGGGCCCCCUGUCAGAUUCUGGUGAAUCUGCGAAUUCUGCUGU [C29G G31C], the self-cleavage falls from 0.473 to 0.13.

First: GGGGGCCACAGCAGAAGCGUUCACGUCGGGGCCCCUGUCAGAUUCUGGUGAAUCUGCGAAUUCUGCGGU [C29G U67G]
Second: GGGGGCCACAGCAGAAGCGUUCACGUCGGGGCCCCUGUCAGAUUCUGGUGAAUCUGCGAAUUCUGCCGU [C29G U67C]
The self-cleavage of the first is higher: 0.482 for the first, 0.47 for the second.

Going from GGGGGCCACAGCAGAAGCGUUCACGUCGGGGCCCCUGUCAGAUUCUGGUGAAUCUGCGAAUUCUGCAGU [C29G U67A] to GGGGGCCACAGCAGAAGCGUUCACGUCGGGGCCCCUGUCAGAAUCUGGUGAAUCUGCGAAUUCUGCUGU [C29G U43A], the self-cleavage falls from 0.517 to 0.186.

First: GGGGGCCACAGCAGAAGCGUUCACGUCGGGGCCCCUGUCAGACUCUGGUGAAUCUGCGAAUUCUGCUGU [C29G U43C]
Second: GGGGGCCACAGCAGAAGCGUUCACGUCGGGGCCCCUGUCAGAUUCUGGUGAAUCUGCGAAUUCUGCUGG [C29G U69G]
The self-cleavage of the first is lower: 0.428 for the first, 0.703 for the second.

Compared with GGGGGCCACAGCAGAAGCGUUCACGUCGUGGCCCCUGUCAGAUUCUGGUGAAUCUGCGAAUUGUGCUGU [C29U C63G], GGGGGCCACAGCAGAAGCGUUCACGUCGUGGCCCCUGUCAGAUUCUGGUGAAUCUGCGAAUUAUGCUGU [C29U C63A] is lower in self-cleavage: 0.198 for the first, 0.176 for the second.

First: GGGGGCCACAGCAGAAGCGUUCACGUCGUGGACCCUGUCAGAUUCUGGUGAAUCUGCGAAUUCUGCUGU [C29U C32A]
Second: GGGGGCCACAGCAGAAGCGUUCACGUCGGGGCCCCUGUCAGAUUCUGGUCAAUCUGCGAAUUCUGCUGU [C29G G50C]
The self-cleavage of the first is lower: 0.295 for the first, 0.457 for the second.

Going from GGGGGCCACAGCAGAAGCGUUCACGUCGUGGCUCCUGUCAGAUUCUGGUGAAUCUGCGAAUUCUGCUGU [C29U C33U] to GGGGGCCACAGCAGAAGCGUUCACGUCGUGGCCCCUGUCAGAUUCUGGUGAAUCUGCGACUUCUGCUGU [C29U A60C], the self-cleavage falls from 0.511 to 0.223.

Compared with GGGGGCCACAGCAGAAGCGUUCACGUCGGGGCCCCUGUCACAUUCUGGUGAAUCUGCGAAUUCUGCUGU [C29G G41C], GGGGGCCACAGCAGAAGCGUUCACGUCGGGGCCCCUGUCAUAUUCUGGUGAAUCUGCGAAUUCUGCUGU [C29G G41U] is higher in self-cleavage: 0.173 for the first, 0.21 for the second.

Going from GGGGGCCACAGCAGAAGCGUUCACGUCGGGGCCCCUCUCAGAUUCUGGUGAAUCUGCGAAUUCUGCUGU [C29G G37C] to GGGGGCCACAGCAGAAGCGUUCACGUCGGGGCCCCUAUCAGAUUCUGGUGAAUCUGCGAAUUCUGCUGU [C29G G37A], the self-cleavage rises from 0.169 to 0.178.

Going from GGGGGCCACAGCAGAAGCGUUCACGUCGUGGCCCCUGUCAGAUUCUGGUGCAUCUGCGAAUUCUGCUGU [C29U A51C] to GGGGGCCACAGCAGAAGCGUUCACGUCGUGGCCCCUGUCAGAUUCUGGUGUAUCUGCGAAUUCUGCUGU [C29U A51U], the self-cleavage rises from 0.356 to 0.432.

Going from GGGGGCCACAGCAGAAGCGUUCACGUCGUGGCCCAUGUCAGAUUCUGGUGAAUCUGCGAAUUCUGCUGU [C29U C35A] to GGGGGCCACAGCAGAAGCGUUCACGUCGUGGCCCGUGUCAGAUUCUGGUGAAUCUGCGAAUUCUGCUGU [C29U C35G], the self-cleavage rises from 0.186 to 0.237.

Compared with GGGGGCCACAGCAGAAGCGUUCACGUCGGGGCCCCUGUCAGAUUCUGGUGAAUCUGCGAAUUCAGCUGU [C29G U64A], GGGGGCCACAGCAGAAGCGUUCACGUCGUGGCCCCUGUGAGAUUCUGGUGAAUCUGCGAAUUCUGCUGU [C29U C39G] is lower in self-cleavage: 0.191 for the first, 0.163 for the second.

First: GGGGGCCACAGCAGAAGCGUUCACGUCGGGGCCCCUGACAGAUUCUGGUGAAUCUGCGAAUUCUGCUGU [C29G U38A]
Second: GGGGGCCACAGCAGAAGCGUUCACGUCGGGGCCCCUGUCAGAUGCUGGUGAAUCUGCGAAUUCUGCUGU [C29G U44G]
The self-cleavage of the first is lower: 0.316 for the first, 0.361 for the second.

First: GGGGGCCACAGCAGAAGCGUUCACGUCGGGGCCCCUGUCAGAUUCUGGUGAAUCUGCGAACUCUGCUGU [C29G U61C]
Second: GGGGGCCACAGCAGAAGCGUUCACGUCGGGGCCCCUGUCAGAUUCUGGUGAAUCUGCGAAGUCUGCUGU [C29G U61G]
The self-cleavage of the first is lower: 0.221 for the first, 0.348 for the second.

Variant GGGGGCCACAGCAGAAGCGUUCACGUCGGUGCCCCUGUCAGAUUCUGGUGAAUCUGCGAAUUCUGCUGU [C29G G30U] has a self-cleavage of 0.219.
